Laboratory results as given in patent US20230295226A1 (FLORIDA ATLANTIC UNIVERSITY BOARD OF TRUSTEES, published 2023).
Bridges are numbered along the chain shown (N, C = ends). Where no end group is shown, it is not given here. [ ]: non-standard residue; d: D form.

What was measured:
asialofetuin [1] = biological target: T1, asialofetuin (UniProt P12763 19-359, limits assumed, glycoprotein; desialylated glycans, described as L-fucose bearing); assay: ITC
T1 construct: also called L-fucose bearing asialofetuin; model glycoprotein
T1 sequence (looked up): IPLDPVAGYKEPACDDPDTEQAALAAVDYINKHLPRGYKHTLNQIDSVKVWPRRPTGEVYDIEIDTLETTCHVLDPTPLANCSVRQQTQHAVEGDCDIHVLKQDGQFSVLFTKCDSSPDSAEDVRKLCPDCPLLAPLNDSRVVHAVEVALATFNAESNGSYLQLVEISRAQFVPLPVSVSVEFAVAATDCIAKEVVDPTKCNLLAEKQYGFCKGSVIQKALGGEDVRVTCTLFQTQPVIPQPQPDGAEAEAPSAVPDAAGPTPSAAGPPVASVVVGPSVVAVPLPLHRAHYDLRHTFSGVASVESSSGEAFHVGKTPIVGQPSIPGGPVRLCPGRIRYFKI

[2] = biological target: T2, delta opioid receptor (DOR); assay: protein binding radioassay
T2 construct: the library screen elsewhere used human clones in CHO cells

mu opioid receptor (MOR) = biological target: T3, mu opioid receptor (MOR); assay: protein binding radioassay
T3 construct: see m11 for the human receptor of the library screen

asialofetuin [3] = biological target: T1, asialofetuin; assay: ITC, as cited in the text from Table 1; conflicts with Table 1, which prints 6.4 × 10^4 nM for OL and 4.2 × 10^4 nM for DADLE-OL
[4] = biological target: T4, kappa opioid receptor (KOR); assay: protein binding radioassay
T4 construct: see m12 for the human receptor of the library screen

For YASPKCFRY[dA]GF[dL]LACT (disulfide 6-16) [DADLE-OL], which Kd (asialofetuin [1]) is on record?
Its Kd is 42 µM.

And the Kd [2]?
The Kd was 64 nM.

What about the Kd (mu opioid receptor (MOR)) of the same binder?
The Kd was 3540 nM.

B1: Odorranalectin (OL) (peptide)
peptide: YASPKCFRYPNGVLACT
modifications: disulfide 6-16
notes: Synthetic copy of the natural product; on-resin disulfide formation by I2 oxidation; also called unmodified OL; OL natural product
B1 was tested. Which Kd (asialofetuin [1]) did it give?
The Kd was 64 µM.

And the Kd (asialofetuin [3])?
The Kd was 42 µM.

RVFSLCNATYPYKGACP (disulfide 6-16) [Control peptide (scrambled OL sequence)] was tested. Which Kd (asialofetuin [1]) did it give?
Its Kd is 760 µM.

Which Kd (asialofetuin [1]) does the source give for Y[dA]GF[dL]KCFRYPNGVLACT (disulfide 7-17) [DADLE-OL II] here?
The Kd was 33 µM.

And the Kd [2]?
Its Kd is 275 nM.

And the Kd (mu opioid receptor (MOR))?
The Kd was 123 nM.

And the Kd [4]?
The Kd was 1080 nM.
